{
  "source": "paper PMC8519570",
  "about": "(2021)",
  "target": "DENV2 sE WT (soluble envelope protein E of dengue virus 2, wild type) (dengue virus 2 (strain 16681))",
  "assay": "BLI",
  "data": [
    {"binder": "EDE1 C10 quaternary epitope antibody (antibody, V domains shown) VH: EVQLVESGAEVKKPGASVKVSCKASGYTFTSYAMHWVRQAPGQRLEWMGWINAGNGNTKYSQKFQDRVTITRDTSASTAYMELSSLRSEDTAIYYCARDKVDDYGDYWFPTLWYFDYWGQGTLVTVSS VL: QSALTQPASVSGSPGQSITISCTGTSSDVGGFNYVSWFQQHPGKAPKLMLYDVTSRPSGVSSRFSGSKSGNTASLTISGLQAEDEADYYCSSHTSRGTWVFGGGTKLTVL", "values": [
      {"measurement": "Kd", "result": "> 1", "unit": "µM"}
    ]}
  ]
}
